This note sets out measurements from patent publication US10851403B2, “Cyclin-dependent kinase substrate” (SYSMEX CORPORATION, priority 2017, dated 2020).

No end group written: not given here. *: point of attachment. Biotin = O=C1N[C@H]2[C@H](CS[C@H]2CCCCC(=O)*)N1; Ahx = NCCCCCC(=O)O

Test [1] has as its target T1, CDK6/cyclin D3 (Homo sapiens, UniProt Q00534).
T1 construct: purchased SignalChem
The test can be described thus: CDK reactivity test 6 (Test Example 6), automated immunoassay system HISCL-800. Particulars: 0.01 to 10 μg/mL CDK1/A2, CDK2/E1, CDK4/D3 or CDK6/D3; ATP; anti-phospho-antibody; 42° C. 3 minutes. The test is classed as biochemical. The procedure:
The reactivity of the polypeptide (Polypeptide 28) obtained in Production Example 5 to CDK1, CDK2, CDK4 and CDK6 was examined using an automated immunoassay system (manufactured by Sysmex Corporation, HISCL-800). Specifically, it was performed as follows.
In a well of a plate, 30 μL of a CDK solution (composition: 0.01 to 10 μg/mL CDK/cyclin complex, 1% BSA, triethanolamine buffer solution (pH 7.5)) containing CDK1/cyclin A2, CDK2/cyclin E1, CDK4/cyclin D3 or CDK6/cyclin D3 (all manufactured by SignalChem) and 30 μL of a kinase reaction solution (composition: 4 μg/mL substrate peptide, 50 mM HEPES-NaOH buffer solution (pH 7.4), 15 mM MgCl2, 16 mM ATP) containing Polypeptide 28 as a substrate peptide were mixed, and the plate was incubated at 42° C. for 3 minutes. 30 μL (containing 0.15 μg of magnetic St-Ab beads) of a HISCL HBsAg R2 reagent (manufactured by Sysmex Corporation) was added to the well, and the plate was incubated at 42° C. for 2 minutes. The beads in the well were precipitated using a magnet, and the supernatant was removed. Then, a HISCL washing solution (manufactured by Sysmex Corporation) was added, and the beads were washed by shaking several times. […] Luminescence was detected with a luminometer, and the luminescence intensity was measured.

Test [2] concerns the target T2, CDK4/cyclin D3 (Homo sapiens, UniProt P11802).
T2 construct: purchased SignalChem
The test can be described thus: CDK reactivity test 3 (Test Example 3). Type of test: biochemical. Particulars: luminescence intensity when using CDK6 set as 100%, HRP-labeled anti-FITC antibody. Here is the method:
The reactivity of the polypeptides obtained in Production Example 3 to CDK1, CDK2, CDK4 and CDK6 was examined. Specifically, it was performed as follows.
In a well of a hydrophilic filter plate, 30 μL of a CDK solution (composition: 10 μg/mL CDK/cyclin complex, 1% BSA, triethanolamine buffer solution (pH 7.5)) containing CDK1/cyclin A2, CDK2/cyclin E1, CDK4/cyclin D3 or CDK6/cyclin D3 (all manufactured by SignalChem) and 30 μL of a kinase reaction solution (composition: 4 μg/mL substrate peptide, 50 mM HEPES-NaOH buffer solution (pH 7.4), 15 mM MgCl2, 2 mM ATP-γS) containing any of Comparative Polypeptides 2 to 4 as a substrate peptide were mixed, and the plate was incubated at 37° C. for 1 hour with stirring at 900 rpm using a constant temperature shaker. The reaction solution was recovered by centrifugation (4° C., 2000 rpm, 5 minutes), and 28.6 μL of the reaction solution was dispensed into each well of a PCR plate. […] Luminescence was detected with a luminescence plate reader, and the luminescence intensity was measured. For each polypeptide, the relative value of the luminescence intensity when using other CDKs, in the case where the luminescence intensity when using CDK6 was set as 100%, was calculated.

T1 sequence (Q00534 whole entry): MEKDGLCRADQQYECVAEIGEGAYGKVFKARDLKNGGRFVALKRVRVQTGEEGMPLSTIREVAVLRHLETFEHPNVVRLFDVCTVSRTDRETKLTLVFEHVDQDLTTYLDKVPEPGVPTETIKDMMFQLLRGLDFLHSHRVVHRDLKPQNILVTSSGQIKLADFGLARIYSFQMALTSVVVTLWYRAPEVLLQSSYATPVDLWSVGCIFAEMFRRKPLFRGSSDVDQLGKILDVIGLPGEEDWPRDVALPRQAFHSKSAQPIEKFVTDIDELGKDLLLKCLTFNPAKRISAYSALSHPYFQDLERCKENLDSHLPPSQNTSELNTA
T1 sequence (P30281 whole entry partner): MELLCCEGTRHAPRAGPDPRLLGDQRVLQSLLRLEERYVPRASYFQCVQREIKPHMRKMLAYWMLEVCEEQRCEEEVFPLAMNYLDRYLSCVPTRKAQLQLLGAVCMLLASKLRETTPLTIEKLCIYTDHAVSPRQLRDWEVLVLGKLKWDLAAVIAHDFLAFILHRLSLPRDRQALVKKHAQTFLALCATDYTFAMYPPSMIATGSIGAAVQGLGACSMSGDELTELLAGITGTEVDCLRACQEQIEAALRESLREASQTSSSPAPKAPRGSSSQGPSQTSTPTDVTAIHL
T2 sequence (P11802 whole entry): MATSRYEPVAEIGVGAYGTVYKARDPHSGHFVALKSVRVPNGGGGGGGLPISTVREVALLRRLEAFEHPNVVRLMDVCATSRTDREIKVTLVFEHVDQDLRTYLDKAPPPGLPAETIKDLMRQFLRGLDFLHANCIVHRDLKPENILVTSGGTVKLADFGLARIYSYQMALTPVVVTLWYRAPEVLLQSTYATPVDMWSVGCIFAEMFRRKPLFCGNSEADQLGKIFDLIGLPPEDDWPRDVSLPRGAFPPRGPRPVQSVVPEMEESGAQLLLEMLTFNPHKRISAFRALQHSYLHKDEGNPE
T2 sequence (P30281 whole entry partner): as the sequence (P30281 whole entry partner) above

With “GAPWSPDPWDDGGGG ({Biotin-Ahx}-GAPWSPDPWDDGGGG) [Polypeptide 28, acidic-residue mutant of Polypeptide 3, N-terminal biotin via aminohexane linker]”, the “specific detection of CDK (luminescence intensity versus CDK concentration, FIG. 3)” value in test [1] is recorded as “a substrate capable of specifically detecting CDK6”. “PYKISEGLPTPAKMAPRSRI (PYKISEGLPTPAKMAPRSRI-NH2; not fully specified (N-terminus)) [Comparative Polypeptide 4, Comparative Polypeptide 3 with the CDK4 phosphorylation site residue replaced with alanine; N-terminal biotin]”: in test [2], the “relative value of the luminescence intensity” value was “Not detected”.
